# Results from the supplement of paper PMC9732359.
# ± gives the uncertainty stated by the source.
# Experiment: protein stability index of a GFP-peptide fusion (yeast GPS) (PSI 1-4); higher = more stable; sorted into four equal gates, so the index is relative within each strain
# Summary of the method: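 Plasmids in a pooled yeast library fused tiled 17-residue yeast protein peptides downstream of GFP and also expressed Cherry. Mid-log cultures grown without leucine were sorted into four equal gates by GFP/Cherry fluorescence ratio. Each gate's plasmids were PCR-amplified and Illumina-sequenced, and reads were matched to strains by barcodes. The protein stability index is derived by multiplying each gate's read frequency by its gate number and summing the results.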
sequence,measurement,setting,value
SVKLDLQDDEDHKFPIR [BRN1],protein stability index,doa10∆,2.99 ± 0.18
same,protein stability index,pdr5∆,2.88 ± 0.098
same,protein stability index,san1∆,2.76 ± 0.14
same,protein stability index,ubr1∆,2.22 ± 0.17
SVKLKQKRLEAGALNLA [DIS3],protein stability index,doa10∆,3.42 ± 0.13
same,protein stability index,pdr5∆,3.11 ± 0.12
same,protein stability index,san1∆,3.36 ± 0.081
same,protein stability index,ubr1∆,3 ± 0.071
SVLHSWVQLVQIIVTDG [YJL039C/NUP192],protein stability index,doa10∆,1.58 ± 0.049
same,protein stability index,pdr5∆,1.98 ± 0.056
same,protein stability index,san1∆,1.28 ± 0.085
same,protein stability index,ubr1∆,1.54 ± 0.055
SVLISIPLDNYDDFIYL [PCI8],protein stability index,doa10∆,1.25 ± 0.048
same,protein stability index,pdr5∆,1.75 ± 0.055
same,protein stability index,san1∆,1.28 ± 0.11
same,protein stability index,ubr1∆,1.52 ± 0.042
SVLQLFQSVQLNINNPN [SMC2],protein stability index,doa10∆,1.88 ± 0.049
same,protein stability index,pdr5∆,1.89 ± 0.045
same,protein stability index,san1∆,1.68 ± 0.058
same,protein stability index,ubr1∆,1.48 ± 0.04
SVLSSKPGSKPEKTSTE [SIR3],protein stability index,doa10∆,3.17 ± 0.12
same,protein stability index,pdr5∆,2.7 ± 0.19
same,protein stability index,san1∆,3.15 ± 0.078
same,protein stability index,ubr1∆,3.2 ± 0.12
SVLYPDELEDDTLNETN [RRP43],protein stability index,doa10∆,3 ± 0.082
same,protein stability index,pdr5∆,3.08 ± 0.071
same,protein stability index,san1∆,3.19 ± 0.08
same,protein stability index,ubr1∆,3.11 ± 0.062
SVNKNKRQAYAVSEKAG [RPL4A],protein stability index,pdr5∆,1.69 ± 0.17
same,protein stability index,ubr1∆,3.29 ± 0.13
SVPIWVDTSTELESMLE [RRP6],protein stability index,doa10∆,3.07 ± 0.12
same,protein stability index,pdr5∆,3.28 ± 0.16
same,protein stability index,san1∆,3.06 ± 0.063
same,protein stability index,ubr1∆,2.96 ± 0.085
SVQDLGGSATARHKKKV [YML031W/NDC1],protein stability index,doa10∆,2.7 ± 0.12
same,protein stability index,pdr5∆,1.75 ± 0.069
same,protein stability index,san1∆,1.57 ± 0.21
same,protein stability index,ubr1∆,2.05 ± 0.057
SVSLLNSDIANLRTQVT [SMC1],protein stability index,doa10∆,3.04 ± 0.09
same,protein stability index,pdr5∆,3.08 ± 0.064
same,protein stability index,san1∆,3.13 ± 0.096
same,protein stability index,ubr1∆,2.56 ± 0.11
SVSLVDEFPSELSDSDR [SIR4],protein stability index,doa10∆,2.68 ± 0.071
same,protein stability index,pdr5∆,2.57 ± 0.058
same,protein stability index,san1∆,2.64 ± 0.067
same,protein stability index,ubr1∆,2.16 ± 0.057
SVVKKEDNKYAIAGNST [RGR1],protein stability index,doa10∆,3.1 ± 0.084
same,protein stability index,pdr5∆,2.63 ± 0.072
same,protein stability index,san1∆,3.02 ± 0.054
same,protein stability index,ubr1∆,2.92 ± 0.054
SVVSMSNDVLKPETPKG [SIR2],protein stability index,doa10∆,3.01 ± 0.073
same,protein stability index,pdr5∆,3.51 ± 0.11
same,protein stability index,san1∆,3.25 ± 0.062
same,protein stability index,ubr1∆,2.96 ± 0.052
SYDKTVKLWEEDPDQEE [YGL100W/SEH1],protein stability index,doa10∆,3.32 ± 0.12
same,protein stability index,pdr5∆,3.21 ± 0.079
same,protein stability index,san1∆,3.3 ± 0.044
same,protein stability index,ubr1∆,3.29 ± 0.06
SYEKNEDHVEDHRKRKK [LIN1],protein stability index,doa10∆,3.25 ± 0.1
same,protein stability index,pdr5∆,3.36 ± 0.1
same,protein stability index,san1∆,3.38 ± 0.084
same,protein stability index,ubr1∆,3.21 ± 0.054
SYFLKLLGNCYSLRLIN [SRB8],protein stability index,doa10∆,2.81 ± 0.065
same,protein stability index,pdr5∆,2.75 ± 0.06
same,protein stability index,san1∆,2.48 ± 0.061
same,protein stability index,ubr1∆,2.96 ± 0.069
SYFYRRIHVNPSYYGVR [BRR2],protein stability index,doa10∆,1.5 ± 0.064
same,protein stability index,pdr5∆,1.85 ± 0.057
same,protein stability index,san1∆,1.61 ± 0.07
same,protein stability index,ubr1∆,1.76 ± 0.029
SYKDSGLWGFSTATRNV [COR1],protein stability index,doa10∆,2.98 ± 0.086
same,protein stability index,pdr5∆,3.11 ± 0.094
same,protein stability index,san1∆,3.19 ± 0.064
same,protein stability index,ubr1∆,3.16 ± 0.084
SYKRIYGEYPPTKLLVS [PRE8],protein stability index,doa10∆,2.87 ± 0.083
same,protein stability index,pdr5∆,3.03 ± 0.085
same,protein stability index,san1∆,2.75 ± 0.1
same,protein stability index,ubr1∆,3.09 ± 0.06
SYQKLLKNYVLNELHPT [PRP8],protein stability index,doa10∆,1.62 ± 0.039
same,protein stability index,pdr5∆,1.57 ± 0.034
same,protein stability index,san1∆,1.55 ± 0.057
same,protein stability index,ubr1∆,1.75 ± 0.033
SYRGVDLEKLLEMSTED [RPS15],protein stability index,doa10∆,2.76 ± 0.14
same,protein stability index,pdr5∆,2.86 ± 0.12
same,protein stability index,san1∆,2.27 ± 0.2
same,protein stability index,ubr1∆,3.19 ± 0.083
SYTDAQDKSKKIMNVTT [YMR129W/POM152],protein stability index,doa10∆,2.97 ± 0.1
same,protein stability index,pdr5∆,2.66 ± 0.11
same,protein stability index,san1∆,2.88 ± 0.056
same,protein stability index,ubr1∆,3.03 ± 0.048
SYYDNDLDETTQTFNGS [YML031W/NDC1],protein stability index,doa10∆,2.77 ± 0.043
same,protein stability index,pdr5∆,2.78 ± 0.033
same,protein stability index,san1∆,2.66 ± 0.038
same,protein stability index,ubr1∆,2.81 ± 0.033
SYYELETIIFDSELNRA [RRI1],protein stability index,doa10∆,2.96 ± 0.11
same,protein stability index,pdr5∆,3.13 ± 0.075
same,protein stability index,san1∆,2.97 ± 0.056
same,protein stability index,ubr1∆,2.93 ± 0.056
TAASEARKHKLKTLVQG [RPS27A],protein stability index,doa10∆,2.1 ± 0.24
same,protein stability index,pdr5∆,2.75 ± 0.22
same,protein stability index,ubr1∆,3.04 ± 0.18
TAEAPTLSFNFSQKANK [YOR098C/NUP1],protein stability index,doa10∆,3.27 ± 0.081
same,protein stability index,pdr5∆,3.27 ± 0.086
same,protein stability index,san1∆,3.24 ± 0.056
same,protein stability index,ubr1∆,3.26 ± 0.085
TAEDSWAVISAFFREKG [RPB2],protein stability index,doa10∆,3.26 ± 0.12
same,protein stability index,pdr5∆,3.02 ± 0.073
same,protein stability index,san1∆,2.61 ± 0.068
same,protein stability index,ubr1∆,2.94 ± 0.063
TAFNKTRGPFHFRAPSR [RPL16B],protein stability index,doa10∆,2.95 ± 0.09
same,protein stability index,pdr5∆,3.14 ± 0.068
same,protein stability index,san1∆,2.59 ± 0.066
same,protein stability index,ubr1∆,3 ± 0.066
TAGAAANALGGLGVNRR [SSN3],protein stability index,doa10∆,3.51 ± 0.11
same,protein stability index,pdr5∆,3.04 ± 0.11
same,protein stability index,san1∆,3.38 ± 0.089
same,protein stability index,ubr1∆,3.24 ± 0.1
TAIGIATKEGVVLGVEK [PUP2],protein stability index,doa10∆,3.15 ± 0.14
same,protein stability index,pdr5∆,3.31 ± 0.11
same,protein stability index,san1∆,2.79 ± 0.16
same,protein stability index,ubr1∆,3.11 ± 0.058
TAILQRQLQYETLGDIL [ECM29],protein stability index,doa10∆,2.62 ± 0.086
same,protein stability index,pdr5∆,3.31 ± 0.12
same,protein stability index,san1∆,2.73 ± 0.098
same,protein stability index,ubr1∆,3.02 ± 0.097
TANATAELNLPTVDEQR [SNF11],protein stability index,doa10∆,3.04 ± 0.035
same,protein stability index,pdr5∆,3.14 ± 0.032
same,protein stability index,san1∆,2.99 ± 0.043
same,protein stability index,ubr1∆,3.147 ± 0.026
TANATANVNASAMPAPY [DSN1],protein stability index,doa10∆,3.11 ± 0.042
same,protein stability index,pdr5∆,3.17 ± 0.037
same,protein stability index,san1∆,3.083 ± 0.029
same,protein stability index,ubr1∆,3.1 ± 0.034
TAPSSQRRVLLSAPLSK [RPL26A],protein stability index,doa10∆,2.45 ± 0.045
same,protein stability index,pdr5∆,2.31 ± 0.053
same,protein stability index,san1∆,2.31 ± 0.055
same,protein stability index,ubr1∆,2.18 ± 0.036
TASFIPLDTIETELPTL [SMC1],protein stability index,doa10∆,2.58 ± 0.066
same,protein stability index,pdr5∆,2.65 ± 0.078
same,protein stability index,san1∆,2.56 ± 0.066
same,protein stability index,ubr1∆,2.53 ± 0.051
TASKIIVIDVDYNKKQD [MED1],protein stability index,doa10∆,2.21 ± 0.083
same,protein stability index,pdr5∆,2.58 ± 0.081
same,protein stability index,san1∆,2.17 ± 0.055
same,protein stability index,ubr1∆,2.65 ± 0.065
TASSEASAGSKEGASTN [YMR153W/NUP53],protein stability index,doa10∆,3.09 ± 0.2
same,protein stability index,pdr5∆,3.23 ± 0.14
same,protein stability index,san1∆,3.32 ± 0.16
same,protein stability index,ubr1∆,3.39 ± 0.12
TASVEKAEFSKEMTLQK [YIL149C/MLP2],protein stability index,doa10∆,3.25 ± 0.15
same,protein stability index,pdr5∆,3.44 ± 0.14
same,protein stability index,san1∆,3.3 ± 0.14
same,protein stability index,ubr1∆,3.22 ± 0.13
TATNSKGEQIAIFPYQD [ECM29],protein stability index,doa10∆,2.44 ± 0.085
same,protein stability index,pdr5∆,2.98 ± 0.12
same,protein stability index,san1∆,3.29 ± 0.12
same,protein stability index,ubr1∆,3.15 ± 0.15
TAVKQGVTSLGIKATNG [PRE8],protein stability index,doa10∆,2.41 ± 0.065
same,protein stability index,pdr5∆,2.06 ± 0.055
same,protein stability index,san1∆,1.87 ± 0.072
same,protein stability index,ubr1∆,1.71 ± 0.083
TAVSFVSAAEDESLIRE [PRP28],protein stability index,doa10∆,2.77 ± 0.093
same,protein stability index,pdr5∆,3.27 ± 0.15
same,protein stability index,san1∆,3.04 ± 0.16
same,protein stability index,ubr1∆,2.2 ± 0.15
TCAGGRLFNVVVQDSQT [SMC2],protein stability index,doa10∆,2.84 ± 0.11
same,protein stability index,pdr5∆,3.18 ± 0.11
same,protein stability index,san1∆,2.39 ± 0.12
same,protein stability index,ubr1∆,2.76 ± 0.082
TCDEIQNFENDFSLRYI [REC8],protein stability index,doa10∆,2.52 ± 0.14
same,protein stability index,pdr5∆,2.12 ± 0.28
same,protein stability index,san1∆,3.35 ± 0.15
same,protein stability index,ubr1∆,2.88 ± 0.28
TDAMTESQPKQTGTRRN [MCD1],protein stability index,doa10∆,3.04 ± 0.12
same,protein stability index,pdr5∆,3.35 ± 0.12
same,protein stability index,san1∆,3.2 ± 0.068
same,protein stability index,ubr1∆,3.09 ± 0.061
TDDADDHINWEHIKQDY [NSL1],protein stability index,doa10∆,3.4 ± 0.1
same,protein stability index,pdr5∆,3.4 ± 0.12
same,protein stability index,san1∆,3.27 ± 0.13
same,protein stability index,ubr1∆,3.4 ± 0.082
TDGVIGSRTTTNHVLEV [RPO31],protein stability index,doa10∆,3.17 ± 0.094
same,protein stability index,pdr5∆,3.62 ± 0.094
same,protein stability index,san1∆,3.19 ± 0.13
same,protein stability index,ubr1∆,3.54 ± 0.088
TDKPFSSTQDVILRKIS [CSI1],protein stability index,doa10∆,2.87 ± 0.13
same,protein stability index,pdr5∆,3.31 ± 0.13
same,protein stability index,san1∆,2.92 ± 0.071
same,protein stability index,ubr1∆,3.05 ± 0.06
TDLIREKTMMTFGKPEE [YCS4],protein stability index,doa10∆,3.14 ± 0.053
same,protein stability index,pdr5∆,3.31 ± 0.062
same,protein stability index,san1∆,3.19 ± 0.041
same,protein stability index,ubr1∆,3.11 ± 0.05
TDLPIETAAMASLALAH [RPN1],protein stability index,doa10∆,1.5 ± 0.046
same,protein stability index,pdr5∆,1.66 ± 0.043
same,protein stability index,san1∆,1.58 ± 0.063
same,protein stability index,ubr1∆,1.43 ± 0.045
TDLSGKETIARVTGGMK [RPS14A],protein stability index,doa10∆,3.06 ± 0.087
same,protein stability index,pdr5∆,3.12 ± 0.082
same,protein stability index,san1∆,2.79 ± 0.056
same,protein stability index,ubr1∆,2.92 ± 0.061
TDLTNNSTDGAKITEIG [YIL149C/MLP2],protein stability index,doa10∆,3.35 ± 0.087
same,protein stability index,pdr5∆,3.17 ± 0.08
same,protein stability index,san1∆,3.07 ± 0.058
same,protein stability index,ubr1∆,3.28 ± 0.055
